By EC50 is commonly meant the concentration needed to bring the measured effect to its halfway point.

Test [1] concerns the target human FGFR1c plus KLB (Homo sapiens, UniProt P11362+Q86Z14). The test can be described thus: FGF-21 receptor autophosphorylation In-Cell Western (pFGFR ICW) in CHO cells. Format: cell-based. The following applies: CHO cells overexpressing human FGFR1c plus KLB, FGFR autophosphorylation. As for the experimental part:
FIG. 1B-1 to FIG. 1B-4) The FGF induced FGFR autophosphorylation was measured via a specific and highly sensitive In-Cell Western (ICW) in CHO cells stably overexpressing human FGFR1c together with human betaKlotho (KLB). In-Cell Western assay is an immunocytochemical assay usually performed in microplate format. Target-specific primary antibodies and infrared-labelled secondary antibodies are used to detect target proteins in fixed cells, and fluorescent signal from each well is quantified (e.g. the In-Cell Western assay from LI-COR Biosciences, USA).
The cellular efficacy of FGF-21 or FGF-21 fusion proteins was measured using a specific and highly sensitive In-Cell Western (ICW) assay. The ICW assay is an immunocytochemical assay usually performed in microplate format.
(§1) CHO Flp-In cells (Invitrogen, Darmstadt, Germany) stable expressing the human FGFR1c together with human beta-Klotho (KLB) were used for FGF-21 receptor autophosphorylation assay using In-Cell Western. In order to determine the receptor autophosphorylation level, 2×10^4 cells/well were seeded into 96-well plates and grown for 48 h. […] Subsequently cells were washed again with PBS+0.1% Tween20 and infrared dye signals were quantified with an Odyssey imager (LICOR, Bad Homburg, Germany). Results were normalized by quantification of DNA with TO-PRO3 dye (Invitrogen, Karlsruhe, Germany). […]

Test [2] has as its system MAP kinase ERK1/2. In words: ERK1/2 phosphorylation In-Cell Western (pERK ICW) in CHO cells overexpressing human FGFR1c plus KLB. Format: cell-based. The following applies: ERK1/2 phosphorylation Thr202/Tyr204. As for the experimental part: FIG. 1C-1 to FIG. 1C-3) Dose dependent in vitro activation of the downstream effector ERK. Activation of the downstream effector of FGF signaling, the MAP kinase ERK1/2, was determined via In-Cell Western assay in CHO cells stably overexpressing human FGFR1c and KLB using an antibody directed against the ERK1/2 phosphorylated amino acid residues threonine 202 and tyrosine 204.
as §1, with “h. Cells were serum starved with serum-free medium Ham's F-12 Nutrient Mix with GlutaMAX (Gibco, Darmstadt, Germany) for 3-4 h.” for “h.”
To assess the activation of a downstream effector of FGFR signalling by FGF-21-GLP-1RA fusion proteins the phosphorylation of MAP kinases ERK1/2 were analysed. […]

human FGFR1c plus KLB, sequence (P11362 22-822): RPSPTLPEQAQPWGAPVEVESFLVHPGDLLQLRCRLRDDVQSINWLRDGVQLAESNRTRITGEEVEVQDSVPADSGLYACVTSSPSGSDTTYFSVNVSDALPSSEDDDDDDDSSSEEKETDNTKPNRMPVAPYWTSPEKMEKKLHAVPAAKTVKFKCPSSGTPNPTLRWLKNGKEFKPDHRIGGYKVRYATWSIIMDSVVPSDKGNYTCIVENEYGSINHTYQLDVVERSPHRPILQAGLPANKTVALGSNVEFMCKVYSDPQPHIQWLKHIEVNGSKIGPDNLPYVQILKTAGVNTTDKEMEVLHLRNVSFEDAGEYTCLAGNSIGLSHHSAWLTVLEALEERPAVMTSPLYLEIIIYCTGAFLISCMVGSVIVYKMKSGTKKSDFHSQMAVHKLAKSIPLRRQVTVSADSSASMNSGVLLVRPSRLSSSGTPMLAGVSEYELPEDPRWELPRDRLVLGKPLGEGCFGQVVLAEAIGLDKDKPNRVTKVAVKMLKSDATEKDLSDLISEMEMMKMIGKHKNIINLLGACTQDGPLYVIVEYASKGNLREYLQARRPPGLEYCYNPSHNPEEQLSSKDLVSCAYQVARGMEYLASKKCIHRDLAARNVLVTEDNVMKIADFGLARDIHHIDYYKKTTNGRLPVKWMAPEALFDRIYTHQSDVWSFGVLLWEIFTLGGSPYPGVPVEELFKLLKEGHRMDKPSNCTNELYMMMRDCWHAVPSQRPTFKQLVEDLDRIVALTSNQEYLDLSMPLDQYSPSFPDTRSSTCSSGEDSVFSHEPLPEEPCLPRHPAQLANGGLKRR
human FGFR1c plus KLB, sequence (Q86Z14 whole entry): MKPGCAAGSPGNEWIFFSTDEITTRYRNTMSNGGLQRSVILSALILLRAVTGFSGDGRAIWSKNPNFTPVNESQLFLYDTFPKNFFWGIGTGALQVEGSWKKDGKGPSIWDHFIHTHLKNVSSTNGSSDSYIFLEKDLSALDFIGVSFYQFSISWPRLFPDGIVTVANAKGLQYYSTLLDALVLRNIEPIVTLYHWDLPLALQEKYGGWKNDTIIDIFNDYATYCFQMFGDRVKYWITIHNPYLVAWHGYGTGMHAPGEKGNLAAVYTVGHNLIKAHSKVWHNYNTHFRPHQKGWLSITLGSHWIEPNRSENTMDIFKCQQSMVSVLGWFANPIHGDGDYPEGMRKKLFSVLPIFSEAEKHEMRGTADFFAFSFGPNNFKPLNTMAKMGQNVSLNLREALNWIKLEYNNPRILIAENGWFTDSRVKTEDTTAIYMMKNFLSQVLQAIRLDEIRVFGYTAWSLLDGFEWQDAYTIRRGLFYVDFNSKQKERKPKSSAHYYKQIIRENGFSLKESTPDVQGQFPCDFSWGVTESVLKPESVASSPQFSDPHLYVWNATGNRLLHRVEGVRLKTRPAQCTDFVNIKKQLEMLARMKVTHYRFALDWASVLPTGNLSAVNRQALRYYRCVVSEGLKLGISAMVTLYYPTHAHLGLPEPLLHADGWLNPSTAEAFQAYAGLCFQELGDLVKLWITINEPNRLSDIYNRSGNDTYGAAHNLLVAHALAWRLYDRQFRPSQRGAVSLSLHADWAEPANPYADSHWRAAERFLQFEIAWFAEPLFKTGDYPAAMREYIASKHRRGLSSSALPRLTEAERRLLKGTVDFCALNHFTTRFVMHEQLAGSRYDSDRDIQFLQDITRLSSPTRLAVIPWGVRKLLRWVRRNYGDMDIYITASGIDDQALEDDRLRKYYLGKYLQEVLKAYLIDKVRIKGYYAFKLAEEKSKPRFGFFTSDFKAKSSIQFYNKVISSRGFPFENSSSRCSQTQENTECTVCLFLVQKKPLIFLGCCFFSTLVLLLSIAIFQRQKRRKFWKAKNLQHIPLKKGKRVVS

B1: FGF21 wild type: Native Human FGF-21 without signal sequence (protein)
chain: HPIPDSSPLLQPGGQVRQRYLYTDDAQQTEAHLEIREDGTVGGAADQSPESLLQLKALKPGVIQILGVKTSRFLCQRPDGALYGSLHFDPEACSFRELLLEDGYNVYQSEAHGLPLHLPGNKSPHRDPAPRGPARFLPLPGLPPAPPEPPGILAPQPPDVGSSDPLSMVGPSQGRSPSYAS
modifications: FGF-21 mutein H29-S209
Consider B1, for which the EC50 in test [1] is 4.3 nM; in test [2] it was 0.135 nM.

These data come from patent publication US20190085043A1, “FUSION PROTEINS FOR TREATING A METABOLIC SYNDROME” (SANOFI, priority 2012, published 2019).
